# B1: 37TD-WT (wild-type p53 tetramerisation domain peptide, residues 320-356) (peptide, UniProt P04637 320-356, looked up)
# chain: Ac-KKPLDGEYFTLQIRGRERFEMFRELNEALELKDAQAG-NH2
# modifications: also: 13C-methyl Met340 in the isotope-labelled form
# notes: p53 tetramerisation domain, residues 320-356 (37 amino acids); Made twice: with normal methionine (used in native MS and CD) and with 13C-methyl methionine (used in NMR); also called WT TD; p53TD; source: synthetic peptide (manual Fmoc/tBu SPPS), purified by semi-preparative HPLC
# Molecular target: the molecule itself
# Assay: native MS; peptide alone in 200 mM ammonium acetate, pH 7; high monomer concentration (80 uM WT and T329I, 100 uM R337H), cone voltage 40 V (raised to 80-120 V to dissociate the oligomers); positive ESI, TOF and ion mobility-TOF; WT and R337H not isotope-labelled
protein,measurement,value
B1,stoichiometry N,4
